B1: unnamed (peptide)
chain: SSTPTTPERPKRKSG
B2: unnamed (peptide)
chain: ANNQGPPNLPARDKS
B3: unnamed (peptide)
chain: VAPPPLPNRQLPNLD
B4: unnamed (peptide)
chain: EVTPKVPERPSRRKT
B5: unnamed (peptide)
chain: AERNYAPRLPRRETS
B6: unnamed (peptide)
chain: TPTSGPPLLPPRNTM

Each binder was assayed against T1, Cdc25, P04821 (assay: SPOT array). Conditions: median of control spots 969.
T1 sequence (P04821 50-136, looked up): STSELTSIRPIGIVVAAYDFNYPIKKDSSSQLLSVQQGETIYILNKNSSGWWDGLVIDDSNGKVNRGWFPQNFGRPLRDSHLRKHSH

Row | Binder | SPOT intensity
1 | B1 | 1
2 | B2 | 0
3 | B3 | 0
4 | B4 | 10
5 | B5 | 11
6 | B6 | 0

Each binder was assayed against Bem1-1, P29366 (assay: SPOT array). Conditions: median of control spots 4282.
Chain of Bem1-1, P29366 (P29366 55-141): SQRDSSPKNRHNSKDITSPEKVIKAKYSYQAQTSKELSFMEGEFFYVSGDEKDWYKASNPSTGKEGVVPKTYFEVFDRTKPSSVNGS

Row | Binder | SPOT intensity
7 | B1 | 1
8 | B2 | 0
9 | B3 | 2
10 | B4 | 0
11 | B5 | 1
12 | B6 | 0

These binders were tested against T2, Lsb4, P32793 (assay: SPOT array). Conditions: median of control spots 397.
T2 sequence (P32793 402-468, looked up): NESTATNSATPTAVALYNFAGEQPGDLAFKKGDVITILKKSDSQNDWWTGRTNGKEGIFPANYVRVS

Row | Binder | SPOT intensity
13 | B1 | 363
14 | B2 | 642
15 | B3 | 813
16 | B4 | 317
17 | B5 | 137
18 | B6 | 356

The binders below were run against T3, Bud14, P27637 (assay: SPOT array). Conditions: median of control spots 956.
T3 sequence (P27637 247-328, looked up): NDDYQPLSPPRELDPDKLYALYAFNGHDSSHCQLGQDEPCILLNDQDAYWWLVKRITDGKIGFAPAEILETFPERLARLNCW

Row | Binder | SPOT intensity
19 | B1 | 0
20 | B2 | 0
21 | B3 | 0
22 | B4 | 3
23 | B5 | 12
24 | B6 | 0

What follows are binders tested against T4, Cyk3, Q07533 (assay: SPOT array). Conditions: median of control spots 1451.
T4 sequence (Q07533 1-83, looked up): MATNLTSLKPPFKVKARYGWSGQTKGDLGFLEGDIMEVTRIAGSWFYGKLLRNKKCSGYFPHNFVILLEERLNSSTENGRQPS

Row | Binder | SPOT intensity
25 | B1 | 1
26 | B2 | 0
27 | B3 | 2
28 | B4 | 1
29 | B5 | 0
30 | B6 | 1

What follows are binders tested against T5, Fus1, P11710 (assay: SPOT array). Conditions: median of control spots 1200.
T5 sequence (P11710 432-512, looked up): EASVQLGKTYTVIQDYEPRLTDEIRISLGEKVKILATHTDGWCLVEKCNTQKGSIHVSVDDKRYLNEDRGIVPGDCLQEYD

Row | Binder | SPOT intensity
31 | B1 | 0
32 | B2 | 0
33 | B3 | 0
34 | B4 | 0
35 | B5 | 0
36 | B6 | 1

What follows are binders tested against Bem1-2, P29366 (assay: SPOT array). Conditions: median of control spots 4347.
Chain of Bem1-2, P29366 (P29366 139-227): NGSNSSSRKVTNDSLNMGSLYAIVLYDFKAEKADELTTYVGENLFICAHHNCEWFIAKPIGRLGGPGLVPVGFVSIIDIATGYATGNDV

Row | Binder | SPOT intensity
37 | B1 | 0
38 | B2 | 0
39 | B3 | 0
40 | B4 | 13
41 | B5 | 0
42 | B6 | 0

Each binder was assayed against T6, Bzz1-2, P38822 (assay: SPOT array). Conditions: median of control spots 4538.
T6 sequence (P38822 568-633, looked up): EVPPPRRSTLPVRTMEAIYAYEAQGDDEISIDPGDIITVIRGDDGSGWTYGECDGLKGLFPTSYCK

Row | Binder | SPOT intensity
43 | B1 | 1
44 | B2 | 0
45 | B3 | 0
46 | B4 | 1
47 | B5 | 1
48 | B6 | 0

Each binder was assayed against T7, Hse1, P38753 (assay: SPOT array). Conditions: median of control spots 1727.
T7 sequence (P38753 208-285, looked up): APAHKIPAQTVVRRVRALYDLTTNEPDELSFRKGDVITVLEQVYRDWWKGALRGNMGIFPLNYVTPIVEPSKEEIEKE

Row | Binder | SPOT intensity
49 | B1 | 0
50 | B2 | 0
51 | B3 | 0
52 | B4 | 245
53 | B5 | 4
54 | B6 | 4

The binders below were run against T8, Pin3, Q06449 (assay: SPOT array). Conditions: median of control spots 2171.
T8 sequence (Q06449 53-122, looked up): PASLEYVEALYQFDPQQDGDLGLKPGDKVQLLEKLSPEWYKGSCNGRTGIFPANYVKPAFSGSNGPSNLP

Row | Binder | SPOT intensity
55 | B1 | 6
56 | B2 | 0
57 | B3 | 5
58 | B4 | 25
59 | B5 | 18
60 | B6 | 66

These binders were tested against T9, Myo5, Q04439 (assay: SPOT array). Conditions: median of control spots 471.
T9 sequence (Q04439 1072-1160, looked up): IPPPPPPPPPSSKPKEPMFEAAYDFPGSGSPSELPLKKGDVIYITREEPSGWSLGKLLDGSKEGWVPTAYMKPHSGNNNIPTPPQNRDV

Row | Binder | SPOT intensity
61 | B1 | 0
62 | B2 | 0
63 | B3 | 59
64 | B4 | 0
65 | B5 | 0
66 | B6 | 45

These binders were tested against T10, Abp1, P15891 (assay: SPOT array). Conditions: median of control spots 935.
T10 sequence (P15891 535-592, looked up): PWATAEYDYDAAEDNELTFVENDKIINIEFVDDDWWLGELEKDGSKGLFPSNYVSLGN

Row | Binder | SPOT intensity
67 | B1 | 22
68 | B2 | 0
69 | B3 | 0
70 | B4 | 156
71 | B5 | 50
72 | B6 | 25

Each binder was assayed against Rvs167, P39743 (assay: SPOT array). Conditions: median of control spots 2707.
Chain of Rvs167, P39743 (P39743 419-482): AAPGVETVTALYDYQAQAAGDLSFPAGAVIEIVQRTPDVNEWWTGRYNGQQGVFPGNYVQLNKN

Row | Binder | SPOT intensity
73 | B1 | 0
74 | B2 | 3320
75 | B3 | 5720
76 | B4 | 129
77 | B5 | 306
78 | B6 | 2940

Each binder was assayed against T11, Bbc1, P47068 (assay: SPOT array). Conditions: median of control spots 796.
T11 sequence (P47068 1-78, looked up): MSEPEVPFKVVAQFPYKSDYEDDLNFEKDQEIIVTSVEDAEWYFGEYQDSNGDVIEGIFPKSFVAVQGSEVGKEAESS

Row | Binder | SPOT intensity
79 | B1 | 559
80 | B2 | 0
81 | B3 | 0
82 | B4 | 1070
83 | B5 | 18
84 | B6 | 0

Each binder was assayed against T12, Lsb3, P43603 (assay: SPOT array). Conditions: median of control spots 406.
T12 sequence (P43603 385-451, looked up): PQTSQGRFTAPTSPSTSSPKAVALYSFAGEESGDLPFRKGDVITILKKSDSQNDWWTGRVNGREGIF

Row | Binder | SPOT intensity
85 | B1 | 442
86 | B2 | 478
87 | B3 | 743
88 | B4 | 271
89 | B5 | 371
90 | B6 | 345

The binders below were run against Myo3, P36006 (assay: SPOT array). Conditions: median of control spots 468.

Row | Binder | SPOT intensity
91 | B1 | 0
92 | B2 | 0
93 | B3 | 112
94 | B4 | 0
95 | B5 | 0
96 | B6 | 97

These binders were tested against GST (assay: SPOT array). Conditions: median of control spots 978.

Row | Binder | SPOT intensity
97 | B1 | 2
98 | B2 | 1
99 | B3 | 0
100 | B4 | 0
101 | B5 | 0
102 | B6 | 0

These binders were tested against T13, Bzz1-1, P38822 (assay: SPOT array). Conditions: median of control spots 4446.
T13 sequence (P38822 478-572, looked up): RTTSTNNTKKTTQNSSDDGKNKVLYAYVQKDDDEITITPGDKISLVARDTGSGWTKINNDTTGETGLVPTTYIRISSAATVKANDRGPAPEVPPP

Row | Binder | SPOT intensity
103 | B1 | 1
104 | B2 | 2
105 | B3 | 2
106 | B4 | 1
107 | B5 | 0
108 | B6 | 0

The binders below were run against T14, Lsb1, P53281 (assay: SPOT array). Conditions: median of control spots 388.
T14 sequence (P53281 45-122, looked up): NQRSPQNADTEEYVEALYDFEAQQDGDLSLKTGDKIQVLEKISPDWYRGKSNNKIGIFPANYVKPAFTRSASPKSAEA

Row | Binder | SPOT intensity
109 | B1 | 316
110 | B2 | 461
111 | B3 | 1380
112 | B4 | 824
113 | B5 | 352
114 | B6 | 456

Each binder was assayed against T15, Hof1, Q05080 (assay: SPOT array). Conditions: median of control spots 4086.
T15 sequence (Q05080 590-669, looked up): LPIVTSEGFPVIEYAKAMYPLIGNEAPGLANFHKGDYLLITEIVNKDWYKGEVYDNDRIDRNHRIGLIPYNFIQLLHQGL

Row | Binder | SPOT intensity
115 | B1 | 0
116 | B2 | 0
117 | B3 | 1330
118 | B4 | 28
119 | B5 | 0
120 | B6 | 3

What follows are binders tested against T16, Boi2, P39969 (assay: SPOT array). Conditions: median of control spots 1161.
T16 sequence (P39969 32-116, looked up): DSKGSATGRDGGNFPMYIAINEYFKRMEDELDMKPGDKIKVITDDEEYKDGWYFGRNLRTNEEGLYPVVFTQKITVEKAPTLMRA

Row | Binder | SPOT intensity
121 | B1 | 2
122 | B2 | 0
123 | B3 | 0
124 | B4 | 2
125 | B5 | 0
126 | B6 | 0

Each binder was assayed against T17, Sla1-2, P32790 (assay: SPOT array). Conditions: median of control spots 712.
T17 sequence (P32790 60-140, looked up): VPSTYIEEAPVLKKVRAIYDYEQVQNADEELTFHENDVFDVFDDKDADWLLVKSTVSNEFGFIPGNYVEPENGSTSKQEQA

Row | Binder | SPOT intensity
127 | B1 | 0
128 | B2 | 1
129 | B3 | 0
130 | B4 | 0
131 | B5 | 0
132 | B6 | 1

Each binder was assayed against Sho1, P40073 (assay: SPOT array). Conditions: median of control spots 1148.
Chain of Sho1, P40073 (P40073 287-367): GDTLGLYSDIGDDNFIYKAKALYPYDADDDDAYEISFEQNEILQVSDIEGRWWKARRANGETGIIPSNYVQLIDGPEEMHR

Row | Binder | SPOT intensity
133 | B1 | 0
134 | B2 | 0
135 | B3 | 0
136 | B4 | 23
137 | B5 | 32
138 | B6 | 21

The binders below were run against T18, Sla1-3, P32790 (assay: SPOT array). Conditions: median of control spots 5475.
T18 sequence (P32790 344-424, looked up): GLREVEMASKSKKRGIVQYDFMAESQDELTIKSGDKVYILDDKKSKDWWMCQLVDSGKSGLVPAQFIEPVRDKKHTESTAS

Row | Binder | SPOT intensity
139 | B1 | 0
140 | B2 | 0
141 | B3 | 0
142 | B4 | 15
143 | B5 | 5
144 | B6 | 0

Each binder was assayed against T19, Pex13, P80667 (assay: SPOT array). Conditions: median of control spots 1341.
T19 sequence (P80667 295-386, looked up): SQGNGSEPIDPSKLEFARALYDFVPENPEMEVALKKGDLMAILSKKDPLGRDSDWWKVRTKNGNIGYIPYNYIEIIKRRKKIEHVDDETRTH

Row | Binder | SPOT intensity
145 | B1 | 8
146 | B2 | 229
147 | B3 | 563
148 | B4 | 171
149 | B5 | 76
150 | B6 | 813

These binders were tested against T20, Nbp2, Q12163 (assay: SPOT array). Conditions: median of control spots 357.
T20 sequence (Q12163 103-180, looked up): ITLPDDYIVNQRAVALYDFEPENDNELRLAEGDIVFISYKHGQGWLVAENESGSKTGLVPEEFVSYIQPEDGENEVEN

Row | Binder | SPOT intensity
151 | B1 | 0
152 | B2 | 0
153 | B3 | 0
154 | B4 | 0
155 | B5 | 0
156 | B6 | 0

The binders below were run against T21, Boi1, P38041 (assay: SPOT array). Conditions: median of control spots 1162.
T21 sequence (P38041 1-86, looked up): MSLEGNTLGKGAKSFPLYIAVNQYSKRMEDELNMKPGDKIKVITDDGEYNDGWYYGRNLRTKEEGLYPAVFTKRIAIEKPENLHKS

Row | Binder | SPOT intensity
157 | B1 | 0
158 | B2 | 4
159 | B3 | 0
160 | B4 | 0
161 | B5 | 0
162 | B6 | 2

Source: article PMC2756588
